From article PMC7954794, “Protein context shapes the specificity of SH3 domain-mediated interactions in vivo” (Nature Communications, 2021)

System: growth of yeast strains under 51 stress conditions
Assay: Growth assays in 51 stress conditions (Fig. 1E-F, S2D, S5B)
Assay type: cell-based, Saccharomyces cerevisiae
Set-up: key to Growth (Fig. S2D) / growth of ABP1 SH3-swapped strains in stress condition: log2 colony size, average of median per strain (growth score)
Conditions: ABP1 SH3-swapped strains
Summary of the method: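 Yeast WT, SH3-deleted, KO, SH3-swapped and SH3-shuffled strains pinned in 1536 format, 12 replicates each; pregrown on YPD 2 days at 30 °C, then replicated onto 51 media at 37 °C and imaged every 2 h. Growth score = mean of per-plate median log2 colony size at 74 h.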

B1: BOI1 (protein, UniProt P38041 1-980, looked up)
BEM1-interacting protein 1: MSLEGNTLGKGAKSFPLYIAVNQYSKRMEDELNMKPGDKIKVITDDGEYNDGWYYGRNLRTKEEGLYPAVFTKRIAIEKPENLHKSPTQESGNSGVKYGNLNDSASNIGKVSSHQQENRYTSLKSTMSDIDKALEELRSGSVEQEVSKSPTRVPEVSTPQLQDEQTLIQEKTRNEENTTHDSLFSSTADLNLSSESLKNISKSNISTKSLEPSSESVRQLDLKMAKSWSPEEVTDYFSLVGFDQSTCNKFKEHQVSGKILLELELEHLKELEINSFGIRFQIFKEIRNIKSAIDSSSNKLDADYSTFAFENQAAQLMPAATVNRDEIQQQISSKCNKLSSESSDRKSSSVTTELQRPSSVVVNPNFKLHDPAEQILDMTEVPNLFADKDIFESPGRAPKPPSYPSPVQPPQSPSFNNRYTNNNARFPPQTTYPPKNKNPTVYSNGLIPNSSTSSDNSTGKFKFPAMNGHDSNSRKTTLTSATIPSINTVNTDESLPAISNISSNATSHHPNRNSVVYNNHKRTESGSSFVDLFNRISMLSPVKSSFDEEETKQPSKASRAVFDSARRKSSYGHSRDASLSEMKKHRRNSSILSFFSSKSQSNPTSPTKQTFTIDPAKMTSHSRSQSNSYSHARSQSYSHSRKHSLVTSPLKTSLSPINSKSNIALAHSETPTSSNNKEAVSQPSEGKHKHKHKHKSKHKHKNSSSKDGSSEEKSKKKLFSSTKESFVGSKEFKRSPSELTQKSTKSILPRSNAKKQQTSAFTEGIRSITAKESMQTADCSGWMSKKGTGAMGTWKQRFFTLHGTRLSYFTNTNDEKERGLIDITAHRVLPASDDDRLISLYAASLGKGKYCFKLVPPQPGSKKGLTFTEPRVHYFAVENKSEMKAWLSAIIKATIDIDTSVPVISSYATPTIPLSKAQTLLEEARLQTQLRDAEEEEGRDQFGWDDTQNKRNSNYPIEQDQFETSDYLESSAFEYPGGRL
Growth (Fig. S2D) (Bathophenanthroline.0.1uM): 10.8558
Growth (Fig. S2D) (Bathophenanthroline.10uM): 10.6819
Growth (Fig. S2D) (Bathophenanthroline.1uM): 10.8124
Growth (Fig. S2D) (CaCl2.100mM): 10.8898
Growth (Fig. S2D) (CaCl2.250mM): 10.7569
Growth (Fig. S2D) (CaCl2.500mM): 10.2369
Growth (Fig. S2D) (Caffein.10mM): 9.961
Growth (Fig. S2D) (Caffein.2mM): 10.9473
Growth (Fig. S2D) (CdCl2.100uM): 9.222
Growth (Fig. S2D) (CdCl2.10uM): 10.8438
Growth (Fig. S2D) (CdCl2.50uM): 9.731
Growth (Fig. S2D) (CuSO4.1mM): 10.511
Growth (Fig. S2D) (CuSO4.5mM): 7.921
Growth (Fig. S2D) (Cycloheximide.0.05.uM): 11.026
Growth (Fig. S2D) (Cycloheximide.0.2.uM): 10.6068
Growth (Fig. S2D) (Cycloheximide.0.5.uM): 10.1487
Growth (Fig. S2D) (DMSO.2.): 10.9996
Growth (Fig. S2D) (DMSO.6.): 9.7528
Growth (Fig. S2D) (DMSO.8.): 9.017
Growth (Fig. S2D) (Ethanol.2.): 10.7382
Growth (Fig. S2D) (Ethanol.6.): 10.327
Growth (Fig. S2D) (Ethanol.8.): 10.13
Growth (Fig. S2D) (Galactose.2.): 10.7623
Growth (Fig. S2D) (Glycerol.2.): 9.776
Growth (Fig. S2D) (Hydroxyurea.25mM): 10.8154
Growth (Fig. S2D) (Hygromycin.190uM): 11.0114
Growth (Fig. S2D) (Hygromycin.19uM): 10.9627
Growth (Fig. S2D) (Hygromycin.95uM): 10.9456
Growth (Fig. S2D) (MMS.0.004.): 11.0063
Growth (Fig. S2D) (MMS.0.02.): 10.7015
Growth (Fig. S2D) (MMS.0.04.): 10.0905
Growth (Fig. S2D) (Menadione.100uM): 10.612
Growth (Fig. S2D) (Menadione.200uM): 10.4246
Growth (Fig. S2D) (Menadione.50uM): 10.8341
Growth (Fig. S2D) (NaCl.0.25M): 10.7827
Growth (Fig. S2D) (NaCl.1M): 9.573
Growth (Fig. S2D) (Nitroquinoline.10uM): 10.6267
Growth (Fig. S2D) (Nitroquinoline.50uM): 10.6407
Growth (Fig. S2D) (Nystatin.0.01uM): 11.0406
Growth (Fig. S2D) (Nystatin.0.1uM): 11.0134
Growth (Fig. S2D) (Raffinose.2.): 11.0354
Growth (Fig. S2D) (Rapamycin.10nM): 9.9199
Growth (Fig. S2D) (Rapamycin.50nM): 9.475
Growth (Fig. S2D) (SC.pH3): 10.3897
Growth (Fig. S2D) (SC.pH6): 10.9841
Growth (Fig. S2D) (SDS.0.01.): 10.9238
Growth (Fig. S2D) (SDS.0.02.): 11.0048
Growth (Fig. S2D) (SDS.0.05.): 10.8898
Growth (Fig. S2D) (Sorbitol.10mM): 10.9854
Growth (Fig. S2D) (Sorbitol.1mM): 11.0069
Growth (Fig. S2D) (Sorbitol.5mM): 10.9417
